Measurements reported in the DeepSol protein solubility set.

Assay: soluble on expression in E. coli; label from the status in PepcDB or PDB records

| Sequence | soluble on expression in E. coli |
| --- | --- |
| SLHCIPLWRCNRHVESIDKRHCSLVYVPEEIYRYARSLEELLLDANQLRELPEQFFQLVKLRKLGLSDNEIQRLPPEIANFMQLVELDVSRNEIPEIPESISFCKALQVADFSGNPLTRLPESFPELQNLTCLSVNDISLQSLPENIGNLYNLASLELRENLLTYLPDSLTQLRRLEELDLGNNEIYNLPESIGALLHLKDLWLDGNQLSELPQEIGNLKNLLCLDVSENRLERLPEEISGLTSLTDLVISQNLLETIPDGIGKLKKLSILKVDQNRLTQLPEAVGECESLTELVLTENQLMTLPKSIGKLKKLSNLNADRNKLVSLPKEIGGCCSLTVFCVRDNRLTRIPAEVSQATELHVLDVAGNRLLHLPLSLTALKLKALWLSDNQSQPMLTFQTDTDYTTGEKILTCVLLPQLPSEPTCQENLPRCGALENLVNDVSDEAWNERAVNRVSAIRFVEDEKDEEDNETRTLLRRATPHPGELKHMKKTVENLRNDMNAAKGLDSNKNEVNHAIDRVTTS | not soluble |
| SLHELSLCQSAVEIIQRQAEQHDVKRVTAVWLEIGALSCVEESAVRFSFEIVCHGTVAQGCDLHIVYKPAQAWCWDCSQVVEVHQHDAQCPLCHGERLRVDTGDSLIVKSIEVE | soluble |
| SLHGELDKIYETLALAERRGPGPVDLLLCCGDFQAVRNEADLRCMAVPPKYRHMQTFYRYYSGEKKAPVLTLFIGGNHEASNHLQELPYGGWVAPNIYYLGLAGVVKYRGVRIGGISGIFKSHDYRKGHFECPPYNSSTIRSIYHVRNIEVYKLKQLKQPIDIFLSHDWPRSIYHYGNKKQLLKTKSFFRQEVENNTLGSPAASELLEHLKPTYWFSAHLHVKFAALMQHQAKDKGQTARATKFLALDKCLPHRDFLQILEIEHDPSAPDYLEYDIEWLTILRATDDLINVTGRLWNMPENNGLHARWDYSATEEGMKEVLEKLNHDLKVPCNFSVTAACYDPSKPQT | not soluble |
| SLIKEQASKLIKEIVNQISSLASISNFVLLFPRLDFKGLGYIPQLFFIFVKHDLIEENLSSVSSARAVIDFTNTKSEYVNFNITPRPEIVTINKGILSSIYDQTLIRALRETPFMNSALEFNSNFIKMQFRQRFNLGVYYSMYSPSVGFHEVVSISSLKLKDTVYLEEVEISLQVKICKTFNILTYKG | soluble |
| SLIRGWLAEGERMKETSYYSYVVGELPKGCQYCVRGEKLVLFVTGVCPRNCFYCPLSPWRRKDVAYANERPIRKIEDIIEEAKIQEARGAGVTGGDPLARLNRTVEYIRTLKEEFGKKFHIHLYTTGILADKRALSMLYDAGLDEIRFHPDLFEPSSKFLNREIENLKNAFDFDWDVGGEVPAVPGFGDRIKWFAEILDKFGGKFLNINELEYSETNLSNILNRGFKLAGENSFAIKGSLELGLEILEWGEKNTSLYYHLCTAKLKDAVQLRNRLRRMAKNVAKPYMEITEDGTLRFGIAEYEDLEELYKFLVEEAEVPKEWLYINWEKKRIEMPVEVAEELAEAIEGDVKFYIVEEYPTWDRIEVERIPLNEG | soluble |
| SLKEPRWRDPELPEVLAMLRHPVDPVKANAAAYLQHLCFENEGVKRRVRQLRGLPLLVALLDHPRAEVRRRACGALRNLSYGRDTDNKAAIRDCGGVPALVRLLRAARDNEVRELVTGTLWNLSSYEPLKMVIIDHGLQTLTHEVIVPHSGWEREPNEDSKPRDAEWTTVFKNTSGCLRNVSSDGAEARRRLRECEGLVDALLHALQSAVGRKDTDNKSVENCVCIMRNLSYHVHKEVPGADRYQEAEPGPLGSAVGSQRRRRDDASCFGGKKAKEEWFHQGKKDGEMDRNFDTLDLPKRTEAAKGFELLYQPEVVRLYLSLLTESRNFNTLEAAAGALQNLSAGNWMWATYIRATVRKERGLPVLVELLQSETDKVVRAVAIALRNLSLDRRNKDLIGSYAMAELVRNVRNAQAPPRPGACLEEDTVVAVLNTIHEIVSDSLDNARSLLQARGVPALVALVASSQSVREAKAASHVLQTVWSYKELRGTLQKDGWTKARFQSAAATAKGPK | soluble |
| SLKGRWVKYLLMGTVVAMLAACSSKPTDRGQQYKDGKFTQPFSLVNQPDAVGAPINAGDFAEQINHIRNSSPRLYGNQSNVYNAVQEWLRAGGDTRNMRQFGIDAWQMEGADNYGNVQFTGYYTPVIQARHTRQGEFQYPIYRMPPKRGRLPSRAEIYAGALSDKYILAYSNSLMDNFIMDVQGSGYIDFGDGSPLNFFSYAGKNGHAYRSIGKVLIDRGEVKKEDMSMQAIRHWGETHSEAEVRELLEQNPSFVFFKPQSFAPVKGASAVPLVGRASVASDRSIIPPGTTLLAEVPLLDNNGKFNGQYELRLMVALDVGGAIKGQHFDIYQGIGPEAGHRAGWYNHYGRVWVLKTAPGAGNVFSG | not soluble |
| SLKTIDMKYLRLLAKEYPTIAKTATEIINLEAIMNLPKGTEHFLSDVHGEYSAFEQVLRNGSGVVKRKIRDIFGAELDDAEINSLSTLIYYPEEKMDLLASETEDLQAWYRTTLFRLIELCQYVASKYTRSKVRKAMPEDFAYILEELLHENYNEDDKKLYYEEILQHIISLGRAEEFISALSLLIQQLVVDHLHIVGDVYDRGPYPDKIMDTLMNYHSLDFQWGNHDILWMGAASGSRVCAANVIRISARYLNLDILEDSYGISLRPLALFADEVYKDDPCTYFQPKNEENINYSNAEITQIARMHKAISIIQFKLEGEIINRRKEFDMDHRLLLQFIDYKKGTIHLKGKEYLLLDSHFPTINPEKPYELTDAERELIGKITAAFKNCRRLQKHVQFLYSKGSMFLTYNGNLLYHGCIPLHEDGTFMEMKLRGEKYAGRSLLEQFEILTREAYVRPTGTKEKKYACDIVWYLWTGAISSLFGKSEMTTFERYFVAEKETHTEEKNPYYKLRNNELICKQILEEFGLDGECGHIINGHTPVKEGKGESPIKANGKMLVIDGGFAKAYHKETNLAGYTLLFNSYGLQLVSHQPFTTKEDAIKNETDILSTRQVIEMEINRKRVRDTDIGAKLSEQAEDLKLLLDAYRNGLLHENR | soluble |
| SLLAMPSAISVAVLPDSPHAREMATKAHNSGHEVLIHLPMAPLSKQPLEKNTLRPEMSSDEIERIIRSAVNNVPYAVGINNHMGSKMTSNLFGMQKVMQALERYNLYFLDSVTIGNTQAMRAAQGTGVKVIKRKVFLDDSQNEADIRVQFNRAIDLARRNGSTIAIGHPHPSTVRVLQQMVYNLPPDITLVKASSLLNEPQVDTSTPPKNAVPDAPRNPFRGVKLCKPKKPIEPVYANRFFEVLSESISQSTLIVYFQHQWQGWGKQPEAAKFNASAN | soluble |
| SLNPRDVVIVDFGRTPMGRSKGGMHRNTRAEDMSAHLISKVLERNSKVDPGEVEDVIWGCVNQTLEQGWNIARMASLMTQIPHTSAAQTVSRLCGSSMSALHTAAQAIMTGNGDVFVVGGVEHMGHVSMMHGVDPNPHMSLYAAKASGMMGLTAEMLGKMHGISREQQDAFAVRSHQLAHKATVEGKFKDEIIPMQGYDENGFLKIFDYDETIRPDTTLESLAALKPAFNPKGGTVTAGTSSQITDGASCMIVMSAQRAKDLGLEPLAVIRSMAVAGVDPAIMGYGPVPATQKALKRAGLNMADIDFIELNEAFAAQALPVLKDLKVLDKMNEKVNLHGGAIALGHPFGCSGARISGTLLNVMKQNGGTFGLSTMCIGLGQGIATVFERV | soluble |
| SLNSVTRLDGANRYEVAVNVSKQGWTSASTVIVANGKAYADVLSATPFAYRNNAPVLLTEASKLPTATKNRISQLKPSKVIVIGGTVSVQNGVVSEIKKLGVSSVERIGGANRYEVAANIANKLPSNSKAVIANGTAYADSLAIGAYAARNGIPILLTSSNSIPTATKNAMKSKGTTSTIVVGGEVSISSSVYKQLASPTRIGGSNRYEVAANVVKKYYSSAKNAIISNGYAYADGLTGSVLAAKQNRPMMFTNASSLPTPTREVIGSKNMTTFTVLGGTVSLQSNVVSQLKN | not soluble |
| SLPGKLALKLDPTILKHLAKNYDVIVITGTNGKTLTTALTVKVLREQYPDILTNPSGSNMKQGIVTTFLRAPKAHQKPLAVLEVDEANVIMVTKYITPKAFVFTNIFRDQMDRYGEIYTTYQKILDGVALAPEATIIANGDLPLFNAKQLPNPILYYGFDYQPDHDQQAPANTDGLLCPRCQHILRYHSRTYSNMGKYYCPHCGFERPQLTYKLNALTAMTPTSSDFEINGQAMHLNIGGQYNIYNALAAYAVGRFMDVTPAKIAHALSDNDEQV | not soluble |
| SLPKLHMFYLGGNAGRSNIEVHDIQFAVCDDYREAVPALKAAWFGDADKIHIDGWQVVEWADGYDIAVSETPKTKMPSENAPRLYFANVGGYRAGQLAEAHAFGLFAAATPAEAKQKALQTLLTDSYVQQHKDNLKDVDNLLALDRIGNFHIRLTPNPHGKPAEIGFQGYLPI | soluble |
| SLPTIIGLAAVARSGKDTVASMLMEHPEVATYALADPLKAGCQAIFGLSDAEAWSDEAKEKTIDLWGLSPRQLFQRAGTEWLRDHNADHWLLRADRQLNHKPVEPRPVSATELASPSASIWLGVQAFWGLTEAQTWQDDLRAAEDPFWNITPKEMFAIVDRYLSRDFPSYVSTRSKRAISTPTRPLTNAAGKSIFIIKDIRYENEAAFWRSHNGVIWHITRNNAIKVQSHSSEDGIEFRNGDISIENNDTIEELRKKVESAWSCVRVD | soluble |
| SLRPIPYLPNMIGLITGRASAAERDVTTVASARWPAARFAVRNVAVQGPNAVGQIVEALRELDRDPDVDVIVLARGGGSVEDLLPFSDETLCRAIAACRTPVVSAVGHEPDNPLCDLVVDLRAATPTDAAKKVVPDTAAEQRLIDDLRRRSAQALRNWVSREQRAVAQLRSRPVLADPMTMVSVRAEEVHRARSTLRRNLTLMVAAETERIGHLAARLATLGPAATLARGYAIVQTVAQTGPEGGSEPQVLRSVHDAPEGTKLRVRVADGALAAVSEGQTNGL | soluble |
| SLRRVLMLEGCAQPTLSPNTNAATARVLDRLGISVMPANEAGCCGAVDYHLNAQEKGLARARNNIDAWWPAIEAGAEAILQTASGCGAFVKEYGQMLKNDALYADKARQVSELAVDLVELLREEPLEKLAIRGDKKLAFHCPCTLQHAQKLNGEVEKVLLRLGFTLTDVPDSHLCCGSAGTYALTHPDLARQLRDNKMNALESGKPEMIVTANIGCQTHLASAGRTSVRHWIEIVEQALEKE | soluble |
| SLRSIMTPRGEISWVDAEQSEDEIRRQLLSSPHSLFPVCRGELDEIIGIVRAKEMLVALESGENVAALASASPAIVVPETLDPINLLGVLRRARGSFVIVTNEFGVVQGLVTPLDVLEAIAGEFPDADETPEIVIDGDGWLIKGSTDLHALQQALGLDPLINDDEDIATVAGLVISANGHIPRIGDVVSLPPLHFTVVEANDYRV | soluble |
| SLRSLLTRRTIAIEGCCHGELDAIYSSLARLEEMHKMKVDLLICCGDFQFLACPPKYRDLRDFPAYFRGEKEAPCLTVFVGGNHEAPTVLRELYYGGWVAPKIFYLGHAGVVNVGGVRIAGLSGIFKSQDYRKGYFERPPYTEDTMRSAYHVREFEIAKLNRELTGRVDIVVTHDWPEGIYDFGDKTELIRQKPFLEKDIQAHELGNPHSMELLKKLKPAFWFAAHLHTRFAAVYVHPGPEGKATRFLALDKVLPRREFLQILEVEPLLPAGYVQQLSPGISRRSPTLCYDEEWLAILRANQQVLPVSRFPQKSCLVTKATADDLATVKKNLASLGLR | soluble |
| SLSIYSFSQITRSLFLSNGVAANDKLLLSSNRITAIVNASVEVVNVFFEGIQYIKVPVTDARDSRLYDFFDPIADLIHTIDMRQGRTLLHCMAGVSRSASLCLAYLMKYHSMSLLDAHTWTKSRRPIIRPNNGFWEQLINYEFKLFNN | not soluble |
